In patent US20200087364A1 (IMMATICS BIOTECHNOLOGIES, published 2020):

Biological target: T1, HLA-A*01:01 (human)
T1 construct: MHC class I monomer first loaded with a UV-sensitive peptide (not identified) that is cleaved by UV irradiation and exchanged for the tested peptide; captured on streptavidin plates, detected with anti-β2m; also called peptide-receptive MHC molecules
Assay: UV-ligand exchange, anti-b2m ELISA
Summary of the method: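 Peptide–MHC complexes made by UV-ligand exchange of a UV-cleavable peptide; exchange yield measured by ELISA on streptavidin-coated plates, samples diluted 100-fold, 1 h 37 °C. Detection with 2 ug/ml HRP anti-β2m, TMB, A450; refolded HLA-A*02:01/MLA-001 monomer standards 15-500 ng/ml.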

Binder | peptide exchange yield [%]
PPDHAVGRTKY | 20 to 50
AVMEAAFVY | 50 to 75
TQHFVQENY | 20 to 50
YADPSANRDLL | 20 to 50
MTSTEQSLYY | 50 to 75
QVPLDCVLY | 20 to 50
SLIIDDTEY | 20 to 50
VACGNNPVY | 50 to 75
WSDSTSQTIY | > 75
ILKGGSGTY | 20 to 50
LPDPNVQKY | 20 to 50
YYDLVESTF | 10 to 20
QVWGGQPVY | 10 to 20
RFRSITQSYY | 10 to 20
WSQSSSLMY | > 75
LMEKEDYHSLY | 50 to 75
GSNPARYEF | 20 to 50
FSEPFHLIVSY | > 75
KSWSQSSSLMY | 50 to 75
SANALILTY | 20 to 50
EDDEDEDLY | 50 to 75
ASSLDSLHY | > 75
SRSDFEWVY | 20 to 50
YTAHVGYSMY | > 75
YEPATMEQY | 20 to 50
TAKAPSTEY | 20 to 50
RLSTIRHLY | 50 to 75
ETSFSTSHY | > 75
NSALNPLLY | > 75
FHADSDDESF | 10 to 20
